The record followed here is article PMC11140114.

This experiment deals with recombinant human dynamin-related protein 1 (Drp1), isoform 1 (human) (UniProt O00429).
recombinant human dynamin-related protein 1 (Drp1), isoform 1 (human), sequence (O00429 whole entry, canonical isoform): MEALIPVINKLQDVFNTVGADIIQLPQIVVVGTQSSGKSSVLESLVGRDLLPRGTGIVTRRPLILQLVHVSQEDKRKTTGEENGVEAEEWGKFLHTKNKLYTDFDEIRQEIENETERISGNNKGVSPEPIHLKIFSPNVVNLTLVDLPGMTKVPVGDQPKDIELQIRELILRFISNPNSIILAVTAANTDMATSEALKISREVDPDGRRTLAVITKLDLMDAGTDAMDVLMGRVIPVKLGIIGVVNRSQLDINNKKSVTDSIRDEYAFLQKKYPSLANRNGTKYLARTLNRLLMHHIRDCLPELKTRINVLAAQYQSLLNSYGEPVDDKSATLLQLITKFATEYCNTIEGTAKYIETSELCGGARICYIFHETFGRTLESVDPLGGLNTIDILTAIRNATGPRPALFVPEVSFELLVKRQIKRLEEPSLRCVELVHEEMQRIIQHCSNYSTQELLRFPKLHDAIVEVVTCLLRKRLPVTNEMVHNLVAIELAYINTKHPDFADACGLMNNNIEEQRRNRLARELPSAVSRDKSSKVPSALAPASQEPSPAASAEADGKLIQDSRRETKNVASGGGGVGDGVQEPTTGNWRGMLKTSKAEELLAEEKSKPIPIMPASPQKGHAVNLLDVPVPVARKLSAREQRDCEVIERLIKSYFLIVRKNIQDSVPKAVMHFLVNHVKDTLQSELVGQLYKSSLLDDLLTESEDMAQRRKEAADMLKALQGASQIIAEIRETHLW

B1: Drp1-specific nanobody D63 (VHH)
VHH: QVQLVESGGDLVQPGGSLKLSCAVSGVSDSLSSFYLMAWHRQAPGKQREMIADIVSGKATYADSVKGRFTISRDNAENTAYLQMNSLKPEDTAVYYCNVLIQNRSTFQSYWGQGTQVTVSS
For the molecule B1, the GTPase rate of 100 nM Drp1 with 0, 10, 100 or 1,000 nM Nb (continuous regenerative assay, 37°C); factor of increase after addition of a 10-fold molar excess of D63 amounted to 1.7 fold.
